Test results published in patent US20180037644A1 (Pfizer, published 2018).

Columns and labels:
[1] = target: T1, human IL-33 (mm2) (human, UniProt O95760 112-270); test: SPR, IL-33 amine-coupled to CM5, Fab in solution, 37 C
T1 construct: Variant in which all four cysteine residues are serine; the entry carries an N-terminal Met and a C-terminal His6; Biotinylated in some assays; also called hIL-33 (mm2); huIL-33 (mm2)
T1 chain: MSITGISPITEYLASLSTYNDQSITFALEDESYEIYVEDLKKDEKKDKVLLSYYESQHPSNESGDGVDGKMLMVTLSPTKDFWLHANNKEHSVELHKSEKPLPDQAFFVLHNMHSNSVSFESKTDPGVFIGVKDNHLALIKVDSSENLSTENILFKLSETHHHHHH
Protocol: (§1) Biacore kinetic assays were conducted at 37° C. at a collection rate of 1 Hz on a Biacore T200 instrument (GE Healthcare). Human IL33 (mm2), cynomolgus monkey IL-33, and reduced huIL33 wt were covalently coupled to a CM5 sensor chip (catalogue number BR100530, GE Healthcare) using an amine coupling kit (catalogue number BR100050, GE Healthcare) according to the manufacturer's protocol. […] The dilution and running buffer was HBS-EP+(10 mM HEPES pH 7.4, 0.15M NaCl, 3 mM EDTA, 0.05% P-20). Rate constants and affinities were determined by fitting the resulting sensorgram data to a 1:1 model in Biacore T200 Evaluation software version 1.0 (GE Healthcare).

[2] = target: T2, human IL-33 WT, reduced with DTT (human, UniProt O95760 112-270); test: as above
T2 construct: Wild-type cysteines, FLAG tag in the entry; reduced with 3 mM DTT before use; also called huIL33 wt; hu IL-33 (WT + DTT)
T2 sequence: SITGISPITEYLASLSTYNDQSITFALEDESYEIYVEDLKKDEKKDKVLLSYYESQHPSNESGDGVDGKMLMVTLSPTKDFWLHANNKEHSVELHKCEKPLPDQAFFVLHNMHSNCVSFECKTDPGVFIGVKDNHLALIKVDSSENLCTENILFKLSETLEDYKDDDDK
Protocol: as §1

[3] = target: T3, cynomolgus monkey IL-33 (cys mut) (cynomolgus monkey); test: as above
T3 construct: Variant in which the three cysteine residues are serine; N-terminal Met and C-terminal His6 in the entry; also called cyno IL-33; cyno IL-33 (cys mut)
T3 chain: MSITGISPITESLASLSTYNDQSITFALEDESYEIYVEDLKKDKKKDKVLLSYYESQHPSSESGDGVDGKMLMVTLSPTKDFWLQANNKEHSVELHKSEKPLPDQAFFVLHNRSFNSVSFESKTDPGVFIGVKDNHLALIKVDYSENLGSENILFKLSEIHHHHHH
Protocol: as §1

[4] = target: T1, human IL-33 (mm2); test: SPR, Fab captured by anti-human Fab kit, IL-33 in solution
Protocol: (§2) Fab fragment affinity was measured by two methods, surface plasmon resonance using a BIAcore instrument, with either Fab or IL-33 captured on the chip, and solution equilibrium affinity measurements using a KinExA instrument, with both Fab and IL-33 in solution.
(§3) Surface plasmon resonance experiments were conducted in two formats.

[5] = target: T1, human IL-33 (mm2); test: SPR, biotinylated IL-33 on streptavidin sensor, Fab in solution
Protocol: as §2, §3

[6] = target: T4, IL-1α (UniProt P01583 113-271); test: SPR (Biacore T200), Fab captured on the chip, cytokine injected
T4 sequence (looked up): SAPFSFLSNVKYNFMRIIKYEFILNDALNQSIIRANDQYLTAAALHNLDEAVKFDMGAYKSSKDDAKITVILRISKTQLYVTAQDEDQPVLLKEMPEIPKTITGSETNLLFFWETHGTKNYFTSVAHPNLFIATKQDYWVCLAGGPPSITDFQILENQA
Source text: (§4) The panel of cytokines included IL-1α, IL-1β, IL-18, IL-36α, and IL-36γ.

[7] = target: IL-1β (UniProt P01584 117-269); test: as above
Source text: as §4

[8] = target: T5, IL-18 (UniProt Q14116 37-193); test: as above
T5 sequence (looked up): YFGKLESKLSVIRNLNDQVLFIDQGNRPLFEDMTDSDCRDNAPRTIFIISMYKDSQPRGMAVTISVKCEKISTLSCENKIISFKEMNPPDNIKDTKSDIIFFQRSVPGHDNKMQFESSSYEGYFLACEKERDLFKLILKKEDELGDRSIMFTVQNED
Source text: as §4

[9] = target: T6, IL-36α (UniProt Q9UHA7 6-158); test: as above
T6 sequence (looked up): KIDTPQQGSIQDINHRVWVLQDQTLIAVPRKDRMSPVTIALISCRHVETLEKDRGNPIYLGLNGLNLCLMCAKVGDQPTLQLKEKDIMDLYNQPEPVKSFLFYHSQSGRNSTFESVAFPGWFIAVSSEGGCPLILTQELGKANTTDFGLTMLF
Source text: as §4

[10] = target: T7, IL-36γ (UniProt Q9NZH8 18-169); test: as above
T7 sequence (looked up): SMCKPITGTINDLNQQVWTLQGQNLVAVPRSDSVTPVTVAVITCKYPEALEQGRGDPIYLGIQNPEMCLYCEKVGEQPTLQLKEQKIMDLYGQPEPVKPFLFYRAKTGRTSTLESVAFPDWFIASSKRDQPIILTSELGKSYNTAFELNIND
Source text: as §4

[11] = target: T1, human IL-33 (mm2); test: SPR, biotinylated IL-33 on streptavidin sensor, Fab in solution; immobilized IL-33 (mm2); Fab in solution
Protocol: as §3

B1: 7E8 CDR graft Fab (Fab, V domains shown)
VH: EVQLVESGGGLVQPGGSLRLSCAASGFTFSSYWMYWVRQAPGKGLEWVASITPNGGNTYYPDSVKGRFTISRDNAKNSLYLQMNSLRAEDTAVYYCARGHYYYTSYSLGYWGQGTLVTVSS
VL: DIQMTQSPSSLSASVGDRVTITCKASQNINKHLDWYQQKPGKAPKLLIYFTNNLQTGVPSRFSGSGSGTDFTLTISSLQPEDFATYYCFQYNNGWTFGGGTKVEIKR
notes: also called 7E8 Fab; CDR grafted-7E8 Fab
Kd [1]: 0.0155 nM | koff [1]: 4.17e-05 s⁻¹ | kon [1]: 2.74e+06 M⁻¹ s⁻¹ | Kd [2]: 0.0191 nM | koff [2]: 5.79e-05 s⁻¹ | kon [2]: 3.05e+06 M⁻¹ s⁻¹ | Kd [3]: 0.0144 nM | koff [3]: 4.07e-05 s⁻¹ | kon [3]: 2.81e+06 M⁻¹ s⁻¹ | Kd [4]: 0.249 nM | koff [4]: 0.000301 s⁻¹ | kon [4]: 1.38e+06 M⁻¹ s⁻¹ | Kd [5]: 0.00306 nM | koff [5]: 1.68e-05 s⁻¹ | binding result [6]: no binding | binding result [7]: no binding | binding result [8]: no binding | binding result [9]: no binding | binding result [10]: no binding | kon [11]: 5.47e+06 M⁻¹ s⁻¹
